Experiments:
[1] = biological target: Monkey S-15-Fc (Acrobiosystems, Cat. No. SG5-C5253) (monkey); assay: flow cytometry of yeast-displayed scFv clone, 10 nM Monkey S-15-Fc, M&H Fc-APC
[2] = biological target: T1, biotinylated human Siglec-15 protein (Acrobiosystems, Cat. No. SG5-H82E9) (human) (UniProt Q6ZMC9); assay: flow cytometry of yeast-displayed scFv clone, 30 nM Human S-15 Biotin, Streptavidin-PE
T1 sequence (biotinylated, looked up): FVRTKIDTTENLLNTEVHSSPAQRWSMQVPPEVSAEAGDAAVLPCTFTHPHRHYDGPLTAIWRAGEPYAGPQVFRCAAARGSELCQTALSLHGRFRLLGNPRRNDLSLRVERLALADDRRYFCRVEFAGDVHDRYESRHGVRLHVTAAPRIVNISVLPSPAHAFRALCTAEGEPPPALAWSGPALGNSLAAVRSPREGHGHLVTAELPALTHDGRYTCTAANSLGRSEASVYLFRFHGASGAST

[3] = biological target: murine S-15 Biotin (Acrobiosystems, Cat. No. SG5-M52H7, biotinylated) (murine); assay: flow cytometry of yeast-displayed scFv clone, 30 nM Murine S-15 Biotin, Streptavidin-PE
Irrelevant antigen = assay: flow cytometry of yeast-displayed scFv clone, 30 nM irrelevant antigen, Streptavidin-PE

B1: Ab0 (clone Y14C4), single-chain antibody displayed on yeast (scFv, part only; not given: linker, domain order, tag, anchor, V domains shown, not shown: another chain or arm of the molecule; large carriers; small tags and cut ends)
VH: EVQLLESGGGLVQPGGSLRLSCAASGFTFSSYAMSWVRQAPGKGLEWVSTISGGGGSTYYADSVKGRFTISRDNSKNTLYLQMNSLRAEDTAVYYCAKAIGSSWYSDAFDLWGQGTMVTVSS
VL: DIQMTQSPSSVSASVGDRVTITCRASQDISSWLAWYQQKPGKAPKLLIYVASSLQSGVPSRFSGSGSGTDFTLTISSLQPEDFATYYCQQSYSIPYTFGQGTKLEIK
Monkey S-15 binding signal [1]: 588 MFI | Human S-15 binding signal [2]: 666 MFI | Murine S-15 binding signal [3]: 286 MFI | Irrelevant antigen-binding signal (Irrelevant antigen): 12.5 MFI

Source: patent US20240124576A1
